Laboratory results from patent US20030068675, “Position dependent recognition of GNN nucleotide triplets by zinc fingers” (published 2003).

Tests used:
Test in all cases: EMSA
Conditions in all cases: tags: MBP fusion
ZFP SBS#1484 = ZFP SBS#1484 (synthetic)
Procedure, shortened: (§1)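 Purified ZFP was titrated against labeled double-stranded target (1 nM or lower, at least 10-fold below expected Kd) carrying the natural binding site with flanks. Binding buffer was 10 mM Tris pH 7.5, 100 mM KCl, 1 mM MgCl2, 0.1 mM ZnCl2, 5 mM DTT, 10% glycerol, 0.02% BSA, with equilibration for at least 45 min. Bound and free target were separated on a 10% polyacrylamide gel.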

ZFP SBS#1465 = target: T1, ZFP SBS#1465 (synthetic)
T1 chain: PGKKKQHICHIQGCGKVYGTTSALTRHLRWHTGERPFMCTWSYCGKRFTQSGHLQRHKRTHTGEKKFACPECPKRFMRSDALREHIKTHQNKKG
Procedure, shortened: as §1

ZFP SBS#1466 = target: T2, ZFP SBS#1466 (synthetic)
T2 chain: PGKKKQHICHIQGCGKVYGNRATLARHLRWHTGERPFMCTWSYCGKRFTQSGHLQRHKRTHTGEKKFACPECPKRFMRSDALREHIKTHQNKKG
Procedure, shortened: as §1

ZFP SBS#1490 = target: T3, ZFP SBS#1490 (synthetic)
T3 chain: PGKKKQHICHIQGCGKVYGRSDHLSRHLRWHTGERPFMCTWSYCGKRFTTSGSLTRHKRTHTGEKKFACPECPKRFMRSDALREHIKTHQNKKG
Procedure, shortened: as §1

ZFP SBS#1471 = target: T4, ZFP SBS#1471 (synthetic)
T4 chain: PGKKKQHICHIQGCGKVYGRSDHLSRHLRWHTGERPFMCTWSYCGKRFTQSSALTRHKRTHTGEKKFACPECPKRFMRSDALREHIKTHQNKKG
Procedure, shortened: as §1

ZFP SBS#1442 = target: T5, ZFP SBS#1442 (synthetic)
T5 chain: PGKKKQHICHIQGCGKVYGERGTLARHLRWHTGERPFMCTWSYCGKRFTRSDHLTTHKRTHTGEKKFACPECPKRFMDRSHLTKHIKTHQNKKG
Procedure, shortened: as §1

ZFP SBS#1464 = target: T6, ZFP SBS#1464 (synthetic)
T6 chain: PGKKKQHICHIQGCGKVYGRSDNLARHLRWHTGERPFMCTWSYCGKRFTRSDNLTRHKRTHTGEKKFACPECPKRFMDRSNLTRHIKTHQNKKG
Procedure, shortened: as §1

ZFP SBS#1461 = target: T7, ZFP SBS#1461 (synthetic)
T7 chain: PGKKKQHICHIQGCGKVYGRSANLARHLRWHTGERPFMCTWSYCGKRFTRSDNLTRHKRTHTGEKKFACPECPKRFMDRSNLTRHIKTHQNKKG
Procedure, shortened: as §1

ZFP SBS#1477 = target: T8, ZFP SBS#1477 (synthetic)
T8 chain: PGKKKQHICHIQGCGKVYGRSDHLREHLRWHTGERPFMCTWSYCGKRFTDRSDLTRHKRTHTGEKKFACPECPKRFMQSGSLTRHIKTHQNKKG
Procedure, shortened: as §1

ZFP SBS#1444 = ZFP SBS#1444 (synthetic)
Procedure, shortened: as §1

ZFP SBS#1443 = ZFP SBS#1443 (synthetic)
Procedure, shortened: as §1

ZFP SBS#1445 = target: T9, ZFP SBS#1445 (synthetic)
T9 chain: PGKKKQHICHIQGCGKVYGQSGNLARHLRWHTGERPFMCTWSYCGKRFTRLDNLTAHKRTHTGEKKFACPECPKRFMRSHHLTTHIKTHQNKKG
Procedure, shortened: as §1

ZFP SBS#1446 = ZFP SBS#1446 (synthetic)
Procedure, shortened: as §1

ZFP SBS#1482 = target: T10, ZFP SBS#1482 (synthetic)
T10 chain: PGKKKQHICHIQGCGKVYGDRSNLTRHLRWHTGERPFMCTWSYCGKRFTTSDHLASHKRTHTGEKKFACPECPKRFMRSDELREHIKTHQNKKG
Procedure, shortened: as §1

ZFP SBS#1483 = target: T11, ZFP SBS#1483 (synthetic)
T11 chain: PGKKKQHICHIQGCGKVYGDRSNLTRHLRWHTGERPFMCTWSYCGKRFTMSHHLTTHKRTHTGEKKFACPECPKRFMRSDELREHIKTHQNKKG
Procedure, shortened: as §1

ZFP SBS#1491 = target: T12, ZFP SBS#1491 (synthetic)
T12 chain: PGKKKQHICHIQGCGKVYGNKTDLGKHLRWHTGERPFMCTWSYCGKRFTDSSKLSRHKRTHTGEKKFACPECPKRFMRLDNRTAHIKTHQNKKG
Procedure, shortened: as §1

ZFP SBS#1261 = ZFP SBS#1261 (synthetic)
Procedure, shortened: as §1

ZFP SBS#1263 = ZFP SBS#1263 (synthetic)
Procedure, shortened: as §1

ZFP SBS#558 = ZFP SBS#558 (synthetic)
Procedure, shortened: as §1

ZFP SBS#1262 = ZFP SBS#1262 (synthetic)
Procedure, shortened: as §1

ZFP SBS#1473 = target: T13, ZFP SBS#1473 (synthetic)
T13 chain: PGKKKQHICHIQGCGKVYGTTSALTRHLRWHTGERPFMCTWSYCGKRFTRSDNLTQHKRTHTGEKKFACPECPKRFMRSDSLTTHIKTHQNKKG
Procedure, shortened: as §1

ZFP SBS#1476 = target: T14, ZFP SBS#1476 (synthetic)
T14 chain: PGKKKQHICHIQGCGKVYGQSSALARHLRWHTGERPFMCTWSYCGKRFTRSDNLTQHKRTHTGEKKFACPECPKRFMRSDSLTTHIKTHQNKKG
Procedure, shortened: as §1

ZFP SBS#1472 = target: T15, ZFP SBS#1472 (synthetic)
T15 chain: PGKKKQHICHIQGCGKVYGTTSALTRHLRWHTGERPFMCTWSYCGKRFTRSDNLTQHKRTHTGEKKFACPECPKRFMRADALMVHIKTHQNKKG
Procedure, shortened: as §1

ZFP SBS#1474 = target: T16, ZFP SBS#1474 (synthetic)
T16 chain: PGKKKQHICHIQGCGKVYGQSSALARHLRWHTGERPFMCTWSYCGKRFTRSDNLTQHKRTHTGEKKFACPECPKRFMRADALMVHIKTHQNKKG
Procedure, shortened: as §1

ZFP SBS#1475 = target: T17, ZFP SBS#1475 (synthetic)
T17 chain: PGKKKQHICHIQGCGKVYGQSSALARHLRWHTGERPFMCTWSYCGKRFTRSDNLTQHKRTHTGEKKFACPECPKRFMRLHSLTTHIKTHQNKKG
Procedure, shortened: as §1

ZFP SBS#1487 = target: T18, ZFP SBS#1487 (synthetic)
T18 chain: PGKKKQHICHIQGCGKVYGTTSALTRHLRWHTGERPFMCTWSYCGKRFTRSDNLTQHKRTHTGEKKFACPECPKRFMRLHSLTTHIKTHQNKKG
Procedure, shortened: as §1

ZFP SBS#1479 = target: T19, ZFP SBS#1479 (synthetic)
T19 chain: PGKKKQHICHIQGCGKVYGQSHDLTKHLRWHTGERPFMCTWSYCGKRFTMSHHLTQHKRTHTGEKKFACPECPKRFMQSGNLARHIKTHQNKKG
Procedure, shortened: as §1

ZFP SBS#1480 = target: T20, ZFP SBS#1480 (synthetic)
T20 chain: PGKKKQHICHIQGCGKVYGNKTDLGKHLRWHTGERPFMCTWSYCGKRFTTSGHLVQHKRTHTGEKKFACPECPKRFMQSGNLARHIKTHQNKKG
Procedure, shortened: as §1

ZFP SBS#1481 = target: T21, ZFP SBS#1481 (synthetic)
T21 chain: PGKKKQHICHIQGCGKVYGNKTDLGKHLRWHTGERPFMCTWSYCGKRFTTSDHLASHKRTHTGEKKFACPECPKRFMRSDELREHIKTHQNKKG
Procedure, shortened: as §1

ZFP SBS#1485 = ZFP SBS#1485 (synthetic)
Procedure, shortened: as §1

ZFP SBS#1463 = ZFP SBS#1463 (synthetic)
Procedure, shortened: as §1

ZFP SBS#1455 = ZFP SBS#1455 (synthetic)
Procedure, shortened: as §1

ZFP SBS#1462 = ZFP SBS#1462 (synthetic)
Procedure, shortened: as §1

ZFP SBS#1470 = target: T22, ZFP SBS#1470 (synthetic)
T22 chain: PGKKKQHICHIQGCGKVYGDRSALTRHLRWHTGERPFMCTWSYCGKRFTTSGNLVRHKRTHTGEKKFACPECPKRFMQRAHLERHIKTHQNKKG
Procedure, shortened: as §1

ZFP SBS#1468 = target: T23, ZFP SBS#1468 (synthetic)
T23 chain: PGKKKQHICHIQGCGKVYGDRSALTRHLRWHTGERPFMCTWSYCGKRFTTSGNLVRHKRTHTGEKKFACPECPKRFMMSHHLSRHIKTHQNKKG
Procedure, shortened: as §1

ZFP SBS#1469 = target: T24, ZFP SBS#1469 (synthetic)
T24 chain: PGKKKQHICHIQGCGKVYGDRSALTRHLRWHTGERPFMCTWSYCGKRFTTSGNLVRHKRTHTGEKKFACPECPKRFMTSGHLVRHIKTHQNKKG
Procedure, shortened: as §1

ZFP SBS#1454 = ZFP SBS#1454 (synthetic)
Procedure, shortened: as §1

ZFP SBS#1456 = ZFP SBS#1456 (synthetic)
Procedure, shortened: as §1

Sequence of ZFP SBS#1444 (synthetic) (chain, as listed by the source): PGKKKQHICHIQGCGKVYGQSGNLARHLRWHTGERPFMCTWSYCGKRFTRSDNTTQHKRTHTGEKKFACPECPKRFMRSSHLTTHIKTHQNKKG
Sequence of ZFP SBS#1455 (synthetic) (chain, as listed by the source): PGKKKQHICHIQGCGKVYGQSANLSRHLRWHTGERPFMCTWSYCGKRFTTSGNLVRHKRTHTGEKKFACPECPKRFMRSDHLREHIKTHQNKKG
Sequence of ZFP SBS#1462 (synthetic) (chain, as listed by the source): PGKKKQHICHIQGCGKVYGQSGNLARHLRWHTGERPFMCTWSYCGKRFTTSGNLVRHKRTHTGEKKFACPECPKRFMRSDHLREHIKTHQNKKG
Sequence of ZFP SBS#1456 (synthetic) (chain, as listed by the source): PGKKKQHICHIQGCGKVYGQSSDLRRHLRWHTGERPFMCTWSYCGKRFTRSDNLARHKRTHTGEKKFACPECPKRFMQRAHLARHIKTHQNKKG
Sequence of ZFP SBS#558 (synthetic) (chain, as listed by the source): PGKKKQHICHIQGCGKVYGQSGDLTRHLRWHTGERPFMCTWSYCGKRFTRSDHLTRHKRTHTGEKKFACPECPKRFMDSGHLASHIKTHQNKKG
Sequence of ZFP SBS#1484 (synthetic) (chain, as listed by the source): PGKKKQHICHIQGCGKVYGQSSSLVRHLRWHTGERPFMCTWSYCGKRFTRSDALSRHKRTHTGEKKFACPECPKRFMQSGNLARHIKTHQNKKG
Sequence of ZFP SBS#1446 (synthetic) (chain, as listed by the source): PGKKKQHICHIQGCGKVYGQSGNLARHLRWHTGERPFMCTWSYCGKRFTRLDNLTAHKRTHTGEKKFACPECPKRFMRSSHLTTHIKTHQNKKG
Sequence of ZFP SBS#1262 (synthetic) (chain, as listed by the source): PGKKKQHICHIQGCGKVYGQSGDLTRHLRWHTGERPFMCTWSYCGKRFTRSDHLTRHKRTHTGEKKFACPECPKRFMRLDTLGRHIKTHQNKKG

B1: GAAGTGGTA (dsDNA)
DNA 1: GAAGTGGTA
DNA 2: TACCACTTC
ZFP SBS#1484
  Kd: 0.01 nM

B2: CTGGGAGTT (dsDNA)
DNA 1: CTGGGAGTT
DNA 2: AACTCCCAG
ZFP SBS#1465
  Kd: 0.018 nM
ZFP SBS#1466
  Kd: 0.017 nM

B3: CTGGTTGGG (dsDNA)
DNA 1: CTGGTTGGG
DNA 2: CCCAACCAG
ZFP SBS#1490
  Kd: 0.04 nM
ZFP SBS#1471
  Kd: 0.09 nM

B4: TGCTGGGCC (dsDNA)
DNA 1: TGCTGGGCC
DNA 2: GGCCCAGCA
ZFP SBS#1442
  Kd: 0.36 nM

B5: GACGAGGAG (dsDNA)
DNA 1: GACGAGGAG
DNA 2: CTCCTCGTC
ZFP SBS#1464
  Kd: 0.002 nM
ZFP SBS#1461
  Kd: 0.014 nM

B6: GCAGCCCGG (dsDNA)
DNA 1: GCAGCCCGG
DNA 2: CCGGGCTGC
ZFP SBS#1477
  Kd: 2.31 nM

B7: TGGAAGGAA (dsDNA)
DNA 1: TGGAAGGAA
DNA 2: TTCCTTCCA
ZFP SBS#1444
  Kd: 0.09 nM
ZFP SBS#1443
  Kd: 0.22 nM
ZFP SBS#1445
  Kd: 0.182 nM
ZFP SBS#1446
  Kd: 0.42 nM

B8: CCGTGTGAC (dsDNA)
DNA 1: CCGTGTGAC
DNA 2: GTCACACGG
ZFP SBS#1482
  Kd: 111 nM
ZFP SBS#1483
  Kd: 20.8 nM

B9: AAGGGTTCA (dsDNA)
DNA 1: AAGGGTTCA
DNA 2: TGAACCCTT
ZFP SBS#1491
  Kd: 4.12 nM

B10: TGCGGGGCA (dsDNA)
DNA 1: TGCGGGGCA
DNA 2: TGCCCCGCA
ZFP SBS#1261
  Kd: 0.2 nM
ZFP SBS#1263
  Kd: 21 nM
ZFP SBS#558
  Kd: 21 nM
ZFP SBS#1262
  Kd: 3 nM

B11: TTGAAGGTT (dsDNA)
DNA 1: TTGAAGGTT
DNA 2: AACCTTCAA
ZFP SBS#1473
  Kd: 0.47 nM
ZFP SBS#1476
  Kd: 0.305 nM
ZFP SBS#1472
  Kd: 3.22 nM
ZFP SBS#1474
  Kd: 1.39 nM
ZFP SBS#1475
  Kd: 0.39 nM
ZFP SBS#1487
  Kd: 0.188 nM

B12: GAAAGTTCA (dsDNA)
DNA 1: GAAAGTTCA
DNA 2: TGAACTTTC
ZFP SBS#1479
  Kd: 37 nM
ZFP SBS#1480
  Kd: 62.5 nM
ZFP SBS#1481
  Kd: 37 nM

B13: AAGTGAGCT (dsDNA)
DNA 1: AAGTGAGCT
DNA 2: AGCTCACTT
ZFP SBS#1485
  Kd: 1.54 nM

B14: GAGGCTGTT (dsDNA)
DNA 1: GAGGCTGTT
DNA 2: AACAGCCTC
ZFP SBS#1463
  Kd: 0.003 nM

B15: CGGGATGAA (dsDNA)
DNA 1: CGGGATGAA
DNA 2: TTCATCCCG
ZFP SBS#1455
  Kd: 0.043 nM
ZFP SBS#1462
  Kd: 0.05 nM

B16: GGTGATGTC (dsDNA)
DNA 1: GGTGATGTC
DNA 2: GACATCACC
ZFP SBS#1470
  Kd: 0.156 nM
ZFP SBS#1468
  Kd: 0.08 nM
ZFP SBS#1469
  Kd: 0.28 nM

B17: GGAGAGGCT (dsDNA)
DNA 1: GGAGAGGCT
DNA 2: AGCCTCTCC
ZFP SBS#1454
  Kd: 0.01 nM
ZFP SBS#1456
  Kd: 0.016 nM
